Assay results: EP4778941A1 (Jiangsu Hengrui Pharmaceuticals Co., Ltd., dated 2025)
Like-named read-outs stand apart in the source and are kept apart here. One block for each binder: values may come before it.

Tests used:
[1] = target: T1, Human MET protein on the cell surface (human, UniProt P08581 25-1390); test: cell-based or functional assay
[2] = target: T2, Human HER3 protein on the cell surface (human, UniProt P21860 20-1342); test: cell-based or functional assay
[3] = target: T2, Human HER3 protein on the cell surface; test: FACS on HCC827 Osimertinib-resistant cells (HER3/MET double-positive)
[4] = target: T2, Human HER3 protein on the cell surface; test: FACS on MDA-MB-453 cells (HER3 single-positive)
[5] = target: T2, Human HER3 protein on the cell surface; test: cell-based or functional assay; remark: listed apart in the source
[6] = target: T1, Human MET protein on the cell surface; test: FACS on NCI-H1703 cells (MET single-positive)
[7] = target: T2, Human HER3 protein on the cell surface; test: cell-based or functional assay; remark: listed apart in the source
[8] = target: T3, His-tagged human HER3 antigen (human, UniProt P21860 20-643); test: SPR, Biacore 8K; antibody captured, His-tagged human HER3 antigen 6.25-400 nM as analyte; 1:1 Langmuir
T3 construct: Soluble antigen used as analyte in SPR; not shown: His tag

[9] = target: T4, Human HER3 and MET proteins together on HER3/MET double-positive cells (human, UniProt P21860 20-1342; P08581 25-1390); test: cell-based or functional assay
[10] = target: T4, Human HER3 and MET proteins together on …; test: FACS on HCC827 Osimertinib-resistant cells (HER3/MET double-positive)
[11] = target: T4, Human HER3 and MET proteins together on …; test: cell-based or functional assay; remark: listed apart in the source
[12] = target: T4, Human HER3 and MET proteins together on …; test: cell-based or functional assay; remark: listed apart in the source
[13] = target: T3, His-tagged human HER3 antigen; test: SPR, Biacore 8K, protein A chip; ADC captured, His-tagged antigen 6.25-400 nM as analyte; 1:1 Langmuir
[14] = target: T5, His-tagged human MET antigen (human, UniProt P08581 25-932); test: as above
T5 construct: Soluble antigen used as analyte in SPR; not shown: His tag
T5 sequence (P08581 25-932 limits assumed): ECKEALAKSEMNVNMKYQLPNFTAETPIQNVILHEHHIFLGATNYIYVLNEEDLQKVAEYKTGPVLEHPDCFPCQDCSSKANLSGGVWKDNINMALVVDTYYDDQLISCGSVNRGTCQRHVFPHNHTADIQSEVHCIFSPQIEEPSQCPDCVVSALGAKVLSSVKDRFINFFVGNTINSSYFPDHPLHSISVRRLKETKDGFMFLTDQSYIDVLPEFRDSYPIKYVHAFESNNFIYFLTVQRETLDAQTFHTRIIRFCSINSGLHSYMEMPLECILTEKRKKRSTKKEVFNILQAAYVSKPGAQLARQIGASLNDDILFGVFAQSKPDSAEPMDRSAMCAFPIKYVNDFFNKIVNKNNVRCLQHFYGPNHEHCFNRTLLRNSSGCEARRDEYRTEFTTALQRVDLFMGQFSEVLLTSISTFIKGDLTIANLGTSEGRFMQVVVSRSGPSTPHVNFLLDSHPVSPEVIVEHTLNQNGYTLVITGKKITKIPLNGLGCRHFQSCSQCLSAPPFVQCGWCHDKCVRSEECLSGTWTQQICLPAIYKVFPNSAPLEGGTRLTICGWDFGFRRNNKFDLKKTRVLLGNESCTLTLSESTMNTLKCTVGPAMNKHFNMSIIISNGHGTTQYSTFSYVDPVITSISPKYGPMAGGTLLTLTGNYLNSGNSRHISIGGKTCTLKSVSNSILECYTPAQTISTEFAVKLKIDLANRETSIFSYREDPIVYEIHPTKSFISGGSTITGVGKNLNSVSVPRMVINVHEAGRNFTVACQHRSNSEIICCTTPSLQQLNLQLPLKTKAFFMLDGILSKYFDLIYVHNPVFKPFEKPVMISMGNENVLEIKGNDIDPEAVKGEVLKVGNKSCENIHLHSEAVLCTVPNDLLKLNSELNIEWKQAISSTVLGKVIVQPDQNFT

T1 sequence (P08581 25-1390): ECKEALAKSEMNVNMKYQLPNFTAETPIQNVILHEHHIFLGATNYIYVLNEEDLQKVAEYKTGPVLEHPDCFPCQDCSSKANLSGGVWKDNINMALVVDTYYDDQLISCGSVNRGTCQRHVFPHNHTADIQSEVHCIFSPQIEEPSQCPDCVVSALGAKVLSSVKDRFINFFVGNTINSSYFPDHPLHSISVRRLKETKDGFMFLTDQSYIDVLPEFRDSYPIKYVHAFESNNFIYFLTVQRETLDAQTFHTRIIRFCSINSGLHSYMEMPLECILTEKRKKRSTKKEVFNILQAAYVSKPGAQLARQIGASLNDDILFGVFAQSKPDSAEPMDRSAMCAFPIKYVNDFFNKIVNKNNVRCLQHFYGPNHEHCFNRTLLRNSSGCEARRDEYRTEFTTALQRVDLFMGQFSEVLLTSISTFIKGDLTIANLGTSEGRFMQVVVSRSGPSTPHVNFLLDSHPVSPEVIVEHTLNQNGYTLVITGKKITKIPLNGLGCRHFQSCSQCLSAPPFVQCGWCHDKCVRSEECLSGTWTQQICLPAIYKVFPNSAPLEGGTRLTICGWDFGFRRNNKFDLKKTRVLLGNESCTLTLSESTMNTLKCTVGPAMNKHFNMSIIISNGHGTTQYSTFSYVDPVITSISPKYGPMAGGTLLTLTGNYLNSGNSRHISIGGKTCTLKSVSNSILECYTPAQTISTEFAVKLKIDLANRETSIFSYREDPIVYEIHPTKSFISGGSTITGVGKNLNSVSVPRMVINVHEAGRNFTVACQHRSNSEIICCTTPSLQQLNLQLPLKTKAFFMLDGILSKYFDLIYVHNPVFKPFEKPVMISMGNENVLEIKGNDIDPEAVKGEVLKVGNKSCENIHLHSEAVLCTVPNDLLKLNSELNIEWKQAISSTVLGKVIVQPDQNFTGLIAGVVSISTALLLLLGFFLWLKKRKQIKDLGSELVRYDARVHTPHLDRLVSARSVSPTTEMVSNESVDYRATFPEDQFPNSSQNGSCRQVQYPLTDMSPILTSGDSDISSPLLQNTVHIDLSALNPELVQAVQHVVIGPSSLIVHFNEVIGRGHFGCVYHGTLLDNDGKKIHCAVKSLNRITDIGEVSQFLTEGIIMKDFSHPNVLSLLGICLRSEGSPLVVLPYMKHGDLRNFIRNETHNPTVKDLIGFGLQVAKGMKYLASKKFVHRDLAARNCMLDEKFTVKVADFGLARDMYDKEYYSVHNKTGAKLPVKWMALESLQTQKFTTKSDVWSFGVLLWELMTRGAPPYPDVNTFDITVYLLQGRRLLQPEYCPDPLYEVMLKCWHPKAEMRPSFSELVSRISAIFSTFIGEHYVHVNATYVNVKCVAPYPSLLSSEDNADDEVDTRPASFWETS

B3: Anti-HER3/MET bispecific antibody 2232-01 (A13-A) (bispecific antibody, human IgG1, kappa)
heavy 1: not shown
light 1: DIQMTQSPSSVSASVGDRVTITCRASQGINTWLAWYQQKPGKAPKLLIYAASSLKSGVPSRFSGSGSGADFTLTISSLQPEDFATYYCQQANSFPLTFGGGTKVEIKGGGGSGIPPKIECLPIDISIDEGKVLTVASAFTGEPTPEVTWSTGGRKIHSQEQGRFHIENTDDSTTLTIKDVQKQDGGLYTLTLRNEFGSDSATVNIHIRSI
heavy 2: QVQLVQSGGGLVQPGRSLRLSCAASGFTFDDYAMHWVRQAPGKGLEWVSGISWNSGSIGYADSVKGRFTISRDNAKNSLYLQMNSLRAEDTALYYCAKEGLPGLDYWGQGTLVTVSSASTKGPSVFPLAPSSKSTSGGTAALGCLVKDYFPEPVTVSWNSGALTSGVHTFPAVLQSSGLYSLSSVVTVPSSSLGTQTYICNVNHKPSNTKVDKKVEPKSCDKTHTCPPCPAPELLGGPSVFLFPPKPKDTLMISRTPEVTCVVVDVSHEDPEVKFNWYVDGVEVHNAKTKPREEQYNSTYRVVSVLTVLHQDWLNGKEYKCKVSNKALPAPIEKTISKAKGQPREPQVCTLPPSREEMTKNQVSLSCAVKGFYPSDIAVEWESNGQPENNYKTTPPVLDSDGSFFLVSKLTVDKSRWQQGNVFSCSVMHEALHNHYTQKSLSLSPGK
light 2: DIQMTQSPSSLSASIGDRATITCRASQHVGTYLNWYQQKPGKTPKLLISGAANLQSGVPSRFSGSGSGTDFTLTISSLQPEDFATYYCQQSYNTPPFSFGQGTKVEIKRTVAAPSVFIFPPSDEQLKSGTASVVCLLNNFYPREAKVQWKVDNALQSGNSQESVTEQDSKDSTYSLSSTLTLSKADYEKHKVYACEVTHQGLSSPVTKSFNRGEC
notes: Four chains: H1 = A13 VH-GGGGS-Obscurin-O chain-IgG1 Fc1 (S354C/T366W); L1 = A13 VL-GGGGS-Titin-T chain; H2 = antibody A VH-CH1-IgG1 Fc2 (Y349C/T366S/L368A/Y407V); L2 = antibody A VL-CL
- Minimum cell viability (%) [1]: 0.6%
- Minimum cell viability (%) [2]: 21.7%
- Endocytosis ratio at 0 h (FACS) [9]: 0%
- Endocytosis ratio at 0.5 h (FACS) [9]: 67.9%
- Endocytosis ratio at 2 h (FACS) [9]: 83.2%
- Endocytosis ratio at 6 h (FACS) [9]: 84.1%
- EC50 [10]: 0.52 nM
- Maximum fluorescence value [10]: 2470
- Minimum cell viability (%) [11]: 12.4%
- EC50 [4]: 2.72 nM
- Maximum fluorescence value [4]: 1950
- Minimum cell viability (%) [12]: 24.7%
- EC50 [6]: 1.03 nM
- Maximum fluorescence value [6]: 2430

B4: Anti-HER3/MET antibody-drug conjugate ADC-5 (bispecific antibody, human IgG1, kappa)
heavy 1: not shown
light 1: DIQMTQSPSSVSASVGDRVTITCRASQGISTWLAWYQQKPGKAPKLLIYAASSLKSGVPSRFSGSGSGTDFTLTISSLQPEDFATYYCQQANSFPLTFGGGTKVEIKGGGGSGIPPKIECLPIDISIDEGKVLTVASAFTGEPTPEVTWSTGGRKIHSQEQGRFHIENTDDSTTLTIKDVQKQDGGLYTLTLRNEFGSDSATVNIHIRSI
heavy 2: QVQLVQSGGGLVQPGRSLRLSCAASGFTFDDYAMHWVRQAPGKGLEWVSGISWNSGSIGYADSVKGRFTISRDNAKNSLYLQMNSLRAEDTALYYCAKEGLPGLDYWGQGTLVTVSSASTKGPSVFPLAPSSKSTSGGTAALGCLVKDYFPEPVTVSWNSGALTSGVHTFPAVLQSSGLYSLSSVVTVPSSSLGTQTYICNVNHKPSNTKVDKKVEPKSCDKTHTCPPCPAPELLGGPSVFLFPPKPKDTLMISRTPEVTCVVVDVSHEDPEVKFNWYVDGVEVHNAKTKPREEQYNSTYRVVSVLTVLHQDWLNGKEYKCKVSNKALPAPIEKTISKAKGQPREPQVCTLPPSREEMTKNQVSLSCAVKGFYPSDIAVEWESNGQPENNYKTTPPVLDSDGSFFLVSKLTVDKSRWQQGNVFSCSVMHEALHNHYTQKSLSLSPGK
light 2: DIQMTQSPSSLSASIGDRATITCRASQHVGTYLNWYQQKPGKTPKLLISGAANLQSGVPSRFSGSGSGTDFTLTISSLQPEDFATYYCQQSYNVPPFSFGQGTKVEIKRTVAAPSVFIFPPSDEQLKSGTASVVCLLNNFYPREAKVQWKVDNALQSGNSQESVTEQDSKDSTYSLSSTLTLSKADYEKHKVYACEVTHQGLSSPVTKSFNRGEC
modifications: compound 9-A on reduced cysteines, positions not given; compound 9-A (exatecan derivative linker-drug) on reduced cysteines, positions not given; average DAR 5.87 for the whole molecule
- Kd [13]: 14.3 nM
- koff [13]: 0.00721 s⁻¹
- kon [13]: 505000 M⁻¹ s⁻¹
- Kd [14]: 13.1 nM
- koff [14]: 0.000872 s⁻¹
- kon [14]: 66500 M⁻¹ s⁻¹

Now from value to binder, other results behind:

- EC50 [3]: 0.46 nM
- Maximum fluorescence value [3]: 1240
- EC50 [4]: 0.25 nM
- Maximum fluorescence value [4]: 1990
- Maximum fluorescence value [6]: 90
B1: Naked antibody of the control antibody U3-1402 (U3-1402 Ab) (antibody, human IgG1, kappa, V domains shown)
VH: QVQLQQWGAGLLKPSETLSLTCAVYGGSFSGYYWSWIRQPPGKGLEWIGEINHSGSTNYNPSLKSRVTISVETSKNQFSLKLSSVTAADTAVYYCARDKWTWYFDLWGRGTLVTVSS
VL: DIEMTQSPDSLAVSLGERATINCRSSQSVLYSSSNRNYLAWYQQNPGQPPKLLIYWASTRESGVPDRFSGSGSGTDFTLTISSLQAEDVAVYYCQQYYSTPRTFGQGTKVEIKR
notes: Anti-HER3 control
- Minimum cell viability (%) [1]: 72.9%
- Minimum cell viability (%) [2]: 63.9%
- Minimum cell viability (%) [5]: 73.6%

- Endocytosis ratio at 0 h (FACS) [7]: 0%
- Endocytosis ratio at 0.5 h (FACS) [7]: 55.5%
- Endocytosis ratio at 2 h (FACS) [7]: 80%
- Endocytosis ratio at 6 h (FACS) [7]: 82.2%
- EC50 [3]: 2.06 nM
- Maximum fluorescence value [3]: 1020
- EC50 [4]: 0.48 nM
- Maximum fluorescence value [4]: 1860
- Kd [8]: 14.5 nM
- koff [8]: 0.0103 s⁻¹
- kon [8]: 707000 M⁻¹ s⁻¹
- Maximum fluorescence value [6]: 81
B2: Anti-HER3 antibody A (antibody, human IgG1, kappa, V domains shown)
VH: QVQLVQSGGGLVQPGRSLRLSCAASGFTFDDYAMHWVRQAPGKGLEWVSGISWNSGSIGYADSVKGRFTISRDNAKNSLYLQMNSLRAEDTALYYCAKEGLPGLDYWGQGTLVTVSS
VL: DIQMTQSPSSLSASIGDRATITCRASQHVGTYLNWYQQKPGKTPKLLISGAANLQSGVPSRFSGSGSGTDFTLTISSLQPEDFATYYCQQSYNTPPFSFGQGTKVEIKR
- Minimum cell viability (%) [1]: 77.8%
- Minimum cell viability (%) [2]: 28.5%
- Minimum cell viability (%) [5]: 63.8%
